Data on 2 proteins can be found in article PMC3845908 (Journal of the American Chemical Society, 2012).

Changes are numbered by the printed parent chain. Numbers in names are those of the source. Read-outs that look alike come from different tables or passages of the source.

Data set [1] concerns the molecule itself. Put plainly: pulsed double electron-electron resonance.
Data set [2] concerns the molecule itself. Briefly: pulsed double electron-electron resonance. This is another data set of the same source.

B1: Streptomyces lividans KcsA R64C, MTSL spin-labelled (natural protein, UniProt P0A334 1-160, looked up)
chain: MPPMLSGLLARLVKLLLGRHGSALHWRAAGAATVLLVIVLLAGSYLAVLAERGAPGAQLITYPCALWWSVETATTVGYGDLYPVTLWGRLVAVVVMVAGITSFGLVTAALATWFVGREQERRGHFVRHSEKAAEEAYTRTTRALHERFDRLERMLDDNRR
modifications: MTSL spin label on the cysteine at 64
Consider B1, for which the binding result in data set [1] is “binds”.

B2: Streptomyces lividans KcsA F114C full length, MTSL spin-labelled (natural protein, UniProt P0A334 1-160, looked up)
chain: B1 chain with C64R, F114C
modifications: MTSL spin label on the cysteine at 114
Regarding B2, the binding result in data set [2] is “binds”.
